# Assay results published in patent US20240059799A1 (Pfizer, published 2024).
# Numbering of substitutions follows the chain as printed.
# T1: recombinant human TL1A (human, UniProt O95150 71-251)
# T1 chain: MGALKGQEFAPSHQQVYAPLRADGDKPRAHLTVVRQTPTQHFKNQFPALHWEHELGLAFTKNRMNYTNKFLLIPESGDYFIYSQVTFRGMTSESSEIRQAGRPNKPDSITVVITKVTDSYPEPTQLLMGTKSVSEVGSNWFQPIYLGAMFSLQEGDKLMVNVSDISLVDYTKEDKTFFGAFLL
# T2: human IL-12 (human, UniProt P29460 23-328; P29459 23-219)
# T2 sequence 1: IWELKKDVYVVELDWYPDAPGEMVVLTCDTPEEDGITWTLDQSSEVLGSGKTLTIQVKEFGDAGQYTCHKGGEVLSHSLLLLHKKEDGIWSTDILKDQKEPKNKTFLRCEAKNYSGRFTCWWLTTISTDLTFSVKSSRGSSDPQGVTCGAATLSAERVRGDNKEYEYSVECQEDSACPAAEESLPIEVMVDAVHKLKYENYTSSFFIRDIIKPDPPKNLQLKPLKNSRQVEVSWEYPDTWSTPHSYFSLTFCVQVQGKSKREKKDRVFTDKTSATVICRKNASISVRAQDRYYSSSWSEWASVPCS
# T2 sequence 2: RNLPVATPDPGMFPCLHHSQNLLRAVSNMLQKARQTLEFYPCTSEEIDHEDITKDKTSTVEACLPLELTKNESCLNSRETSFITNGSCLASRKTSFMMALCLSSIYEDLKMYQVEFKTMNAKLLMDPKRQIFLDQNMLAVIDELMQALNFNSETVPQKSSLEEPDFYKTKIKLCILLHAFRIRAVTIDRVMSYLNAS
# T3: human IL-23 (human, UniProt P29460 23-328; Q9NPF7 20-189)
# T3 sequence 1: T2 sequence 1
# T3 sequence 2: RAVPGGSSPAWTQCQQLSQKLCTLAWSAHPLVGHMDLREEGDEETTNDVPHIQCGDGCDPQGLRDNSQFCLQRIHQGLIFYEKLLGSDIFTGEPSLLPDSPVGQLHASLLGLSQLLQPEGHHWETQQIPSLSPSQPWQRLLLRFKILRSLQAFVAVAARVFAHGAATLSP
# T4: recombinant human TL1A (human, UniProt O95150 71-251)
# T4 chain: T1 chain
# T5: full-length human TL1A on CHO-K1 cells (human, UniProt O95150 1-251)
# T5 construct: whole, on cells; also called cells over-expressing human TL1A
# T5 sequence (looked up): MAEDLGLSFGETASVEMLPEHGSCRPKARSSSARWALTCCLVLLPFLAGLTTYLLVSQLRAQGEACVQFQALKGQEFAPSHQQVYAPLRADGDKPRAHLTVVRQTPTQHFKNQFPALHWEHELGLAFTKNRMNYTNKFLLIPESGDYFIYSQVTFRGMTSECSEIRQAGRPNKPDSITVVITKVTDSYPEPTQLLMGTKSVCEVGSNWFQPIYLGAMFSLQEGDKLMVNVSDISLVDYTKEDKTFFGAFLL
# B1: p40TL1A-0001 bispecific antibody (bispecific antibody)
# heavy 1: EVQLVQSGAEVKKPGESLKISCKGSGYSFTTYWLGWVRQMPGKGLDWIGIMSPVDSDIRYSPSFQGQVTMSVDKSITTAYLQWNSLKASDTAMYYCARRRPGQGYFDFWGQGTLVTVSSASTKGPSVFPLAPSSKSTSGGTAALGCLVKDYFPEPVTVSWNSGALTSGVHTFPAVLQSSGLYSLSSVVTVPSSSLGTQTYICNVNHKPSNTKVDKKVEPKSCRKTHTCPRCPAPEAAGAPSVFLFPPKPKDTLMISRTPEVTCVVVDVSHEDPEVKFNWYVDGVEVHNAKTKPREEQYNSTYRVVSVLTVLHQDWLNGKEYKCKVSNKALPAPIEKTISKAKGQPREPQVYTLPPSREEMTKNQVSLTCLVKGFYPSDIAVEWESNGQPENNYKTTPPVLDSDGSFFLYSRLTVDKSRWQQGNVFSCSVLHEALHSHYTQKSLSLSPGK
# light 1: not shown
# heavy 2: QVQLVQSGAEVKKPGASVKVSCKASGYDYTYYGISWVRQAPGQGLEWMGWISTYNTGTHYAPSLQGRVTMTTDTSTSTAYMELRSLRSDDTAVYYCARESYYGSGAFRGGMDVWGQGTTVTVSSASTKGPSVFPLAPSSKSTSGGTAALGCLVKDYFPEPVTVSWNSGALTSGVHTFPAVLQSSGLYSLSSVVTVPSSSLGTQTYICNVNHKPSNTKVDKKVEPKSCEKTHTCPECPAPEAAGAPSVFLFPPKPKDTLMISRTPEVTCVVVDVSHEDPEVKFNWYVDGVEVHNAKTKPREEQYNSTYRVVSVLTVLHQDWLNGKEYKCKVSNKALPAPIEKTISKAKGQPREPQVYTLPPSREEMTKNQVSLTCEVKGFYPSDIAVEWESNGQPENNYKTTPPVLDSDGSFFLYSKLTVDKSRWQQGNVFSCSVLHEALHSHYTQKSLSLSPGK
# light 2: not shown
# B2: p40TL1A-0018 bispecific antibody (bispecific antibody, human IgG1, kappa)
# heavy 1: B1 heavy 1 with R223D, R230P, T368W, R411K
# light 1: not shown
# heavy 2: B1 heavy 2 with E228D, E235P, T373S, E375A, Y414V
# light 2: not shown
# B3: p40TL1A-0021 bispecific antibody (bispecific antibody)
# heavy 1: B1 heavy 1 with R230P
# light 1: not shown
# heavy 2: B1 heavy 2 with E235P
# light 2: not shown
# B4: p40TL1A-0024 bispecific antibody (bispecific antibody, human IgG1, kappa)
# heavy 1: B1 heavy 1 with R223D, R230P
# light 1: not shown
# heavy 2: B1 heavy 2 with E228D, E235P
# light 2: not shown
# B5: p40TL1A-0032 bispecific antibody (bispecific antibody)
# heavy 1: B1 heavy 1 with L130K, V187S, R223D, R230P, Y351C, T368W, R411K
# light 1: DIQMTQSPSSLSASVGDRVTITCRASQGISSWLAWYQQKPEKAPKSLIYAASSLQSGVPSRFSGSGSGTDFTLTISSLQPEDFATYYCQQYNIYPYTFGQGTKLEIKRTVAAPSVFIFPPSDEQLKSGTASVSCLLNNFYPREAKVQWKVDNALQSGNSQESVTEQDSKDSTYSLDSTLTLSKADYEKHKVYACEVTHQGLSSPVTKSFNRGEC
# heavy 2: B1 heavy 2 with L135E, S190G, E228D, E235P, S361C, T373S, E375A, Y414V
# light 2: not shown
# B6: TL1A-0368 (bispecific antibody)
# heavy 1: B1 heavy 2 with E228D, E235P, Y356C, T373W, E375L
# heavy 2: QVQLVQSGAEVKKPGASVKVSCKASGYTFTSYGISWVRQAPGQGLEWMGWISAYNGNTNYAQKLQGRVTMTTDTSTSTAYMELRSLRSDDTAVYYCARESYYGSEAFRAGMDVWGQGTTVTVSS
# light: not shown
# notes: not shown: human IgG1 constant region with effector-minimizing, KiH and LS mutations
# B7: TL1A-0372 monovalent bispecific antibody (bispecific antibody, human IgG1, kappa)
# heavy 1: B1 heavy 2 with E228D, E235P, Y356C, T373W, E375L
# heavy 2: not shown
# light: not shown
# B8: p40-0003 antibody (antibody, human IgG1, kappa, V domains shown)
# VH: EVQLVQSGAEVKKPGESLKISCKGSGYSFTTYWLGWVRQMPGKGLDWIGIMSPVDSDIRYSPSFQGQVTMSVDKSITTAYLQWNSLKASDTAMYYCARRRPGQGYFDFWGQGTLVTVSS
# VL: DIQMTQSPSSLSASVGDRVTITCRASQGISSWLAWYQQKPEKAPKSLIYAASSLQSGVPSRFSGSGSGTDFTLTISSLQPEDFATYYCQQYNIYPYTFGQGTKLEIKR
# B9: [xTL1A]-0360 (antibody, human IgG1, kappa, V domains shown)
# VH: not shown
# VL: DIQMTQSPSSLSASVGDRVTITCRASQSVSSYLAWYQQKPGKAPKLLIYDASNRATGVPSRFSGSGSGTDFTLTISSLQPEDFATYYCQQRSNWPWTFGQGTKVEIKR
# notes: bivalent disabled antibody, IgG1 effector-function-minimized/kappa
# What was measured:
# recombinant human TL1A [1] = target: T1, recombinant human TL1A; assay: cell-based or functional assay
# human IL-12 = target: T2, human IL-12; assay: cell-based or functional assay
# human IL-23 = target: T3, human IL-23; assay: cell-based or functional assay
# recombinant human TL1A [2] = target: T4, recombinant human TL1A; assay: cell-based or functional assay
# recombinant human TL1A [3] = target: T4, recombinant human TL1A; assay: SPR, recombinant human TL1A
# bovine serum albumin = target: T6, bovine serum albumin (bovine, UniProt P02769 25-607); assay: direct binding ELISA on plate-coated BSA (1 ug/mL), anti-human IgG-Fc HRP, OD450
# T6 construct: also called BSA
# Protocol: (§1) For the direct binding ELISA method to HSA or BSA, 96-well high binding plates (Corning, product number 3590) were coated with 1 μg/mL recombinant HSA or BSA in 100 μL/well in PBS overnight at 4° C. Plates were then blocked in PBS+0.02% casein solution and washed with PBS+0.05% Tween-20 following standard ELISA protocol. […] Plates were washed with PBS+0.05% Tween-20 following standard ELISA protocol, and goat anti-human IgG-Fc HRP conjugated secondary antibody (Pierce, #31413) diluted to 1:10,000 in assay buffer was added to plates and incubated for 1 hour at room temperature. Next, the plates were washed with PBS+0.05% Tween-20 following standard ELISA protocol, and then TMB substrate (BioFX Laboratories, catalog number TMBW-0100-01) was added to plates.
# (§2) Reactions were stopped after approximately 5 minutes by adding 0.18 M ortho-phosphoric acid to each well and absorbance was read at 450 nm. […] For this method, samples diluted to 0.3 mg/mL were dispensed into the sample tray of a MicroCal VP-Capillary DSC with Autosampler (Malvern Instruments, Inc.), equilibrated for 5 minutes at 10° C. and then scanned up to 110° C. at a rate of 100° C. per/hour. A filtering period of 16 seconds was selected. Raw data was baseline corrected and the protein concentration was normalized. Origin Software 7.0 (Origin Lab Corporation, Northampton, MA) was used to fit the data to an MN2-State Model with an appropriate number of transitions.
# human serum albumin = target: T7, human serum albumin (human, UniProt P02768 25-609); assay: direct binding ELISA on plate-coated HSA (1 ug/mL), anti-human IgG-Fc HRP, OD450
# T7 construct: also called HSA
# Protocol: as §1, §2
# [4] = target: T5, full-length human TL1A on CHO-K1 cells; assay: flow cytometry on CHO-K1 cells stably expressing full-length human TL1A, PE anti-human IgG, median fluorescent intensity
# Protocol: A cell binding assay was performed to examine if the panel of [xTL1A] bivalent antibody variants could bind to human TL1A over-expressed on the cell surface. […] [xTL1A] bivalent antibody variants were incubated with cells on ice for 30-60 minutes at a concentration of either 1 μg/mL or 20 μg/mL. Cells were pelleted by centrifugation at 1500 RPM for 5 minutes at 4° C. and supernatant was discarded by aspiration. The cells were washed three times with DPBS with 4% FBS buffer as described. Cells were resuspended in 100 μL of PE-anti-human IgG (Life technologies Catalog number H10104) diluted 1:500 in DPBS with 4% FBS buffer and incubated on ice for 15 minutes. Cells were washed three times as described and resuspended in 200 μL of DPBS with 4% FBS buffer, then run on a flow cytometry instrument.
# T6 sequence (P02769 25-607 limits assumed): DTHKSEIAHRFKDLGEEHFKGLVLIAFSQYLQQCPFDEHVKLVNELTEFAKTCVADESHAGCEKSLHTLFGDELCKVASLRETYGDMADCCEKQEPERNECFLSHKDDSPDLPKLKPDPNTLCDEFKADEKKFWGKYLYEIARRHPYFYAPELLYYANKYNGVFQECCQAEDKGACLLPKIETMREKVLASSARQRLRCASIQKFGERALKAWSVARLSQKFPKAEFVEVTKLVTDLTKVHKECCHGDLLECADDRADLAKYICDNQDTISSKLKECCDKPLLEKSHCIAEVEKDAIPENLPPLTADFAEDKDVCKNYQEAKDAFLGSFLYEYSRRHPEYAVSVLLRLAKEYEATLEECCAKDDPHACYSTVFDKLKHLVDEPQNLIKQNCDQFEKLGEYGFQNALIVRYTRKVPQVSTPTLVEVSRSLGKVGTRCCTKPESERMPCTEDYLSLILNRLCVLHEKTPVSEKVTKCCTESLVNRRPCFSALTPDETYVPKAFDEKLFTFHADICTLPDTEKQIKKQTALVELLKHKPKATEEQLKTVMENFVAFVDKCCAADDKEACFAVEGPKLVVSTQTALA
NF-κB assay IC50 (TF-1 reporter cells) (recombinant human TL1A [1]) [nM],"NF-κB assay, Bioactivity relative to TL1A-0372 (recombinant human TL1A [1]) [fold]","KIT-225 STAT4 assay IL-12, Bioactivity relative to p40-0003 (human IL-12) [fold]",KIT-225 STAT4 assay IL-12 IC50 (human IL-12) [nM],"KIT-225 STAT3 assay IL-23, Bioactivity relative to p40-0003 (human IL-23) [fold]",KIT-225 STAT3 assay IL-23 IC50 (human IL-23) [nM],NFκB Bioassay IC50 (recombinant human TL1A [2]) [nM],Kd (recombinant human TL1A [3]) [nM],koff (recombinant human TL1A [3]) [s⁻¹],kon (recombinant human TL1A [3]) [M⁻¹ s⁻¹],binding result (bovine serum albumin),binding result (human serum albumin),binding result [4],Binder
0.0911,0.9,1.7,5.7,2.4,3.9,–,–,–,–,–,–,–,B1
0.105,1,2,6.6,2.1,3.4,–,–,–,–,–,–,–,B2
0.0509,0.5,0.9,3,1.4,3.4,–,–,–,–,–,–,–,B3
0.106,1,1.3,4.3,2.2,3.6,–,–,–,–,–,–,–,B4
0.131,1.3,1.4,4.6,2.3,3.8,–,–,–,–,–,–,–,B5
–,–,–,–,–,–,1.56,0.242,4.61e-05,191000,no binding (tested: 1e-6 M),no binding (tested: 1e-6 M),–,B6
0.102,1,–,–,–,–,–,–,–,–,–,–,–,B7
–,–,1,3.3,1,1.6,–,–,–,–,–,–,–,B8
–,–,–,–,–,–,–,–,–,–,–,–,no binding (tested: 20 ug/mL),B9
